Assay results as given in patent publication US6972178B1, “Drug screening using a proline-rich nuclear receptor co-regulatory protein/nuclear receptor co-expression system” (City of Hope, priority 1999, dated 2005).

Columns and labels:
ERRα1 = biological target: T1, ERRα1 (Homo sapiens, UniProt P11474); experiment: Yeast two-hybrid assay (HIS3 / β-galactosidase reporter); format: cell-based; details: no ligand
T1 construct: inserting the PCR-amplified ERRA-1 coding region into pGBT9 through an EcoRI site; expressed in transfected cells; host or cells: yeast Y187 x CG1945 diploids
T1 sequence (P11474 1-423): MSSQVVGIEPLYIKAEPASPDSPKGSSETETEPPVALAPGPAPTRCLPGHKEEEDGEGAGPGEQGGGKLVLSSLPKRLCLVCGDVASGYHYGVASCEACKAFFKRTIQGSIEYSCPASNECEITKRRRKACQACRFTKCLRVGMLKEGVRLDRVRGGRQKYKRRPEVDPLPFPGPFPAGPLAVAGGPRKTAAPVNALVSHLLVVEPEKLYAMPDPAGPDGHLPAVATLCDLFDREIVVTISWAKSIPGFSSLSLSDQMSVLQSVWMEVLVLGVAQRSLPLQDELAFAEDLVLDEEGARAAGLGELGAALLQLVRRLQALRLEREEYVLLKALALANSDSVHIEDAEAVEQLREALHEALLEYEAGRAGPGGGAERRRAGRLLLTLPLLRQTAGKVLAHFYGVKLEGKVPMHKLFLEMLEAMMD
Method: (§1) The protein-protein interactions between the full-length PNRC or PNRC fragments and SF1, ERRα1, and several other nuclear receptors were analyzed by yeast two-hybrid assays. The yeast two-hybrid assay was used to test if PNRC also interacts with other members of the nuclear receptor superfamily. pGBT9-ERRα-1 yeast expression plasmid was prepared by inserting the PCR-amplified ERRA-1 coding region into pGBT9 through an EcoRI site. To construct the plasmid pGBT9-ER274-595, the coding sequence from amino acids 274 to 595 (LBD) of ERα was amplified by PCR with the sense primer 5′-[…]-3′ (SEQ ID NO:1) and antisense primer 5′-[…]-3′ (SEQ ID NO:2) and cloned into the EcoRI/,SalI site of the pGBT9 yeast expression plasmid. pSG5-GRIP1 and several yeast expression plasmids coding for fusion proteins of Gal4-DBD and HBDs of AR, GR, PR, TR, RAR, and RXR in pGBT9 vector were kindly provided by Dr. Michael R. Stallcup (University of Southern California, Los Angeles, Calif.) (Voegel et al., 1996; Hong et al., 1996; Ding et al., 1998). The yeast mating approach was used in yeast two-hybrid assays to study protein-protein interactions as described in Clontech's protocol. Briefly, pGBT9 (DNA-BD vector only), pGBT9/target plasnmids for SF1, ERRα1, and other HBDs of nuclear receptors, and DNA-BD/control plasmids (as negative control) were introduced into the reporter strain Y187, and the AD vector alone or wild type PNRC and its deleted fragments-containing pACT2 derivatives were used to transform yeast strain CG1945. The yeast mating was performed by picking one colony from each type and growing both colonies in liquid YPD medium with or without a proper ligand at the following concentrations: 100 nM of estradiol for ER; 10 μM of deoxycorticosterone for GR; 100 nM of dihydrotestosterone for AR; 500 nM of progesterone for PR; 10 μM of T3 for TR; 10 μM of all-trans-retinoic acid for RAR; and 10 μM of 9-cis-retinoic acid for RXR. The same amount of an aliquot of the mating culture was spread on both SD/-Leu/-Trp plates to select diploid strains bearing both plasmids and SD/-Leu/-Trp/-His/+3-AT plates to score the growth of the diploid cells that express the two interacting target proteins. The His3 positive colonies were further analyzed for β-galactosidase activity by liquid β-galactosidase activity measurement as essentially described in the protocol.
(§2) Yeast strains Y187 expressing the Gal4DB fusion to the nuclear receptors and CG1945expressing Gal4AD alone or Gal4AD-PNRC fusion protein were mated by co-culturing, and selected for the presence of both two-hybrid plasmids. The expression of interacting hybrid proteins in yeast diploids was analyzed to determine if there was induction of HIS3 expression as shown in FIG. 1A and LacZ expression as shown in FIGS. 1B and 1C. […] As shown in FIGS. 1A-C, PNRC also interacted specifically with all seven nuclear receptor HBDs, including ER, AR, GR, TR, PR, RAR and RXR, and these interactions were completely ligand-dependent. […] However, no interactions occurred either between PNRC and an irrelevant protein such as human lamin C protein or between nuclear receptors and Gal4activation domain alone.

RAR HBD = experiment: as above; format: cell-based; details: 10 μM of all-trans-retinoic acid
Method: as §1, §2

ER (ERα LBD, aa 274-595) = biological target: T2, ER (ERα LBD, aa 274-595) (Homo sapiens, UniProt P03372); experiment: as above; format: cell-based; details: 100 nM of estradiol
T2 construct: expressed in transfected cells; host or cells: yeast Y187 x CG1945 diploids
T2 sequence (P03372 274-595): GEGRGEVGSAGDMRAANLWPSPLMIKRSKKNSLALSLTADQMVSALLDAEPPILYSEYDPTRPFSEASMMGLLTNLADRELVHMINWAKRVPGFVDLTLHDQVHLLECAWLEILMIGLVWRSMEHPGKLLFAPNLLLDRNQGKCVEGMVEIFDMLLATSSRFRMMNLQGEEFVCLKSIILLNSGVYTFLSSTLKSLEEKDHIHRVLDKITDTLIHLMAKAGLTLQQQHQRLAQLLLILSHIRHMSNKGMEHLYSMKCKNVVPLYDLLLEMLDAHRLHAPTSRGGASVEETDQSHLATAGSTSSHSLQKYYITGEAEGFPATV
T2 sequence (Q12796 whole entry partner, the tested form may be a part): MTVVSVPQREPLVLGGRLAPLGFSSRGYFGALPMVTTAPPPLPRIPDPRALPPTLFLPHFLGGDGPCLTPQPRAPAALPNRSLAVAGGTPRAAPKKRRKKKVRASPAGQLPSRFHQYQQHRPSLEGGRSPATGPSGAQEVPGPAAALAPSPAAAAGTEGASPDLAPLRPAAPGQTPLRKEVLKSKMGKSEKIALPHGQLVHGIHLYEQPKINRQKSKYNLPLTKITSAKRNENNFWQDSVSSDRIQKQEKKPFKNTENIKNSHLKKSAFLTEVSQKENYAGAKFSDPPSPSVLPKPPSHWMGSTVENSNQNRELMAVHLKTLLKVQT
Method: as §1, §2

PR HBD = experiment: as above; format: cell-based; details: 500 nM of progesterone
Chain of PR HBD (P06401 679-933 limits assumed): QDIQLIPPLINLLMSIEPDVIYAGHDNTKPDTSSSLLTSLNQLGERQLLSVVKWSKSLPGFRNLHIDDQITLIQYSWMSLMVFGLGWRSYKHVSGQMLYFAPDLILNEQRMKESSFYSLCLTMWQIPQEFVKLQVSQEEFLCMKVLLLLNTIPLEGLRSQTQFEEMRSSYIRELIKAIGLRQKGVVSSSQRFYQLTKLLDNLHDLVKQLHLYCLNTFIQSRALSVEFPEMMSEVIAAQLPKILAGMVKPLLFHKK
Method: as §1, §2

TR HBD = experiment: as above; format: cell-based; details: 10 μM of T3
Method: as §1, §2

SF1 = SF1 (Bos taurus, UniProt Q04752); experiment: Nuclear receptor transactivation, CAT reporter in SK-BR-3 cells; format: cell-based, bovine; set-up: The coding region for the wild type bovine SF1 was first subcloned into a yeast expression vector, pGBT9; expressed in transfected cells; host or cells: yeast (Y187, or Y187 x CG1945 diploids)
Chain of SF1 (Q04752 whole entry): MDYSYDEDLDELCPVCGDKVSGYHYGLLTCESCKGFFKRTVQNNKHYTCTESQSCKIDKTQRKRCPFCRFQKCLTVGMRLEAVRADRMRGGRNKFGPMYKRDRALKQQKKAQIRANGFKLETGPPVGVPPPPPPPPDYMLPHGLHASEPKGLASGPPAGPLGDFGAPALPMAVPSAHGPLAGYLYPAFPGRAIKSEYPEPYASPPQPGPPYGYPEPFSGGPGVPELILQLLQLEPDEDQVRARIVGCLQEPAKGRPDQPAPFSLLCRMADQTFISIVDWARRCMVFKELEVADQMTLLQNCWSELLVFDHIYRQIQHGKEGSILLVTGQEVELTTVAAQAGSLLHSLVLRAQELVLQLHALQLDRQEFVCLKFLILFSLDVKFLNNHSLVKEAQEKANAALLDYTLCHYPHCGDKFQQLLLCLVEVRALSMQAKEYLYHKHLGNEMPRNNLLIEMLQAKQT
From the text: To examine the possible biological significance of this interaction, the entire PNRC coding region was inserted into a mammalian expression vector, pSG5, and this expression plasmid was used to transiently transfect SK-BR-3 cells along with a reporter plasmid, pUMS 1.3CAT-(SF1site)3, which contains three copies of extended steroid hormone half binding site from the human aromatase gene (5′-CCAAGGTCAGAA-3′ (SEQ ID NO:3)), promoter 1.3 of the human aromatase gene, and the CAT reporter gene, along with a second expression plasmid for either SF1 (pSG5-SF1) or ERRα1 (pSG5-ERRα1) (Yang et al., 1998).
Plasmid for overexpression of PNRC in mammalian cells was made by inserting PCR-amplified fragment with BclI at both ends into the BamHI site in pSG5 vector (Stratagene). To construct mammalian expression plasmids for bovine SF1 and human ERRα1, named pSG5-bSF1 and pSGS-hERRα1, the coding regions for SF1 and ERRα1 were amplified by PCR with an EcoRI site at both ends, and inserted into an EcoRI site of the pSG5 vector. The CAT reporter plasmid, pUMS1.3CAT-(SF1site)3, was prepared by inserting 3 copies of SF1 binding site from human aromatase gene, 5′-CCAAGGTCAGAA-3′ (SEQ ID NO:3), into pUMS-64/+5CAT (Zhou and Chen, 1999) through a HindIII site. […]

PNRC: proline-rich nuclear receptor co-regulatory protein, 327 aa, SEQ ID NO:8, nuclear receptor coactivator
interaction with ERRα1 (ERRα1): interacted with orphan receptors SF1 and ERRα1 in the absence of any added activator or ligand
interaction with RAR (RAR HBD): only weak interactions were detected
interaction with ER (ER (ERα LBD, aa 274-595)): only weak interactions were detected
interaction with PR (PR HBD): interacts strongly
interaction with TR (TR HBD): interacts strongly
effect on SF1-stimulated transcription by promoter 1.3 of the human aromatase gene (SF1): enhanced both SF1-stimulated and ERRα1-stimulated transcription
